Results on 11 molecules are retold here after patent US10556936B2, “Immunogenic proteins and fragments thereof from allergenic mites” (ALK-ABELLÓ A/S, priority 2016, dated 2020).

For data set [1], the system named is HDM specific T-cell lines from HDM allergic donors. Put plainly: T cell reactivity of protein: IL-5/IFNg FluoroSPOT or 72 h T cell proliferation in HDM specific T-cell lines (Example 2). Format: cell-based, human. The following applies: responding donors of tested HDM allergic donors. The source says: PBMCs from European HDM-allergic individuals were recruited in the Copenhagen region (defined by clinical history of allergy to house dust mite and specific IgE to group 1 and group 2 major allergens from Der p and/or Der f and with measured specific IgE (CAP) >0.7 kU/L towards Der p/f 1 or Der p/f 2. In addition, PBMCs from 10 US HDM-allergic individuals were recruited in San Diego (defined by Der p extract IgE titers greater than 0.35 kUA/L). PBMCs were isolated from whole blood by density gradient centrifugation according to manufacturers' instructions (Ficoll-Hypaque, Amersham Biosciences, Uppsala, Sweden). Der p- and Der f-specific extract IgE titers were determined using the ImmunoCAP system (Thermo Fisher, Uppsala, Sweden). In a separate series of experiments, pooled plasma from 10 European and 10 American HDM atopic individuals from the San Diego region, respectively, was utilized to run 2D immunoblots to elucidate IgE and IgG reactivity towards the proteins, which had at least one peptide with positive T cell response.
T cells reactivity was determined by establishment of HDM specific T-cell lines according to standard methods. In short, PMBCs from HDM allergic donors were cultured for 2-3 weeks in the presence of house dust mite allergen extract. The responses to proteins having SEQ ID NOs 1-44 were assessed by IL-5/IFNg FluoroSPOT (Mabtech FS-0108-10) according manufacturer protocol, (after 2 weeks) or proliferation in a standard 72 h T cell proliferation assay, as described in Henmar H et al., Clin Exp Immunol 2008; 153(3):316-23. (after 3 weeks). In addition these established T cell lines were used for further characterization and epitope mapping.

Data set [2] relates to basophils in whole blood from HDM allergic donors. In words: Basophil Activation Test (BAT). Format: cell-based, human. The following applies: responding donors of tested HDM allergic donors; whole blood stimulated 1 h. The method, boiled down:
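Whole blood from HDM-allergic donors (n=14) was stimulated for 1 h with test proteins across a concentration range, e.g. 1, 10, 100 or 1000 ng/ml. Basophil surface activation markers were measured by flow cytometry, with Der p 1 and Der p 2 tested at the same concentrations as controls.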

Marks after values point to notes of the source that are not given here.

B1: 37 (protein, listed as Dermatophagoides pteronyssinus)
chain: DTPANCTYEDIKGLWLFEETEPIKDRWEKCPEHQQQREKYSKKIFIRLDFPNVAVDKFGNIGEWTMIYNQGFEVKINYRKYFAFSAYERKSENNVLSYCHKTQPGWSHDVLGNNWACYVGHKVNNWNDDDVSKTTTVGAEKFPVKQHSERELYLQNINVEHILSQKHIDHLNSQQKSWKAIVYPDLQSKSIEHLIQMAGGRKSRIINRPKPLRATEQQKQLARSLPESFDWRNLNGIDYVSPVRDQGKCGSCYTFASMAMLESRIRIQTNNTFKPIFSTQEVVDCSEYSQGCDGGFSYLIAGKYAQDFGVIDESCYPYKGVTGKCQNQQNFNQTNEKCKQRTYTIDYKYVGGYFGACNEEAMQIELVQNGPIAVGFEVYGDFFGYSEGIYSHQPSNESNDQHQQIKAEFNPFEMTNHAVLIVGYGKDKKTGEKYWIVKNSWGKQWGMDGYFWMRRGTDECAIESLAMAATPIPN
As for B1, in data set [1], the “% T cell responding donors to protein” value is on record as 4 of 27. Besides, the “% responding donors in BAT Assay” value in data set [2] is recorded as 0 of 8.

B2: 40 (protein, listed as Dermatophagoides pteronyssinus)
chain: KSAPEGCFRAAVLDHVHQTDARHLSNTAKIIDLNFKVYEDAAALAKKQGADIIVFPENGLIYSILSREKADEFASDIPDAEVNACTLDSKFVYNRLACLAQKHQMFVVADLIDRKSCEELGINNVSDSCPADKKFLFNTAVLFDRQGKLLGRYHKMHLFGEISMNPPPKPELLVIDTELGRLGMQICFDMIFKTPGYLLAQENKFDTMLFPTWWFDESPMLSSSQYQMAWAFGNNVTLLASNIHRIEVGSRGSGIYVGPHRTLAAALYDDSVERLVLANVPIKPKETDQSACPLDSEIIEVPQQIPIPKSVKYHHQNLNLKDVTLLQLSSNESEVHLCHKGVCCQFEYRLAMKDQPQESWVDRVPLLANMLHYLTPEERYYLLIANRTRPGAYPWSEEFCAVVVCPSSRWNFGKMQKDCSKIGSNQELSSRFVHAKLRGKFSEDTAVYPSAVGSKNQLIYPENKWKFWKVNVPNEPEYFIELGAKDNSESRAMELGALVLYGRNYNRDPRYEQKALPIN
For the molecule B2, in data set [1], the “% T cell responding donors to protein” value is given as 15 of 27. Further, the “% responding donors in BAT Assay” value in data set [2] is on record as 0 of 8.

B3: 31 (protein, listed as Dermatophagoides pteronyssinus)
chain: MAKFNYLPVDVQEELRNTANAIVSVGKGILAADESTGTIGKRFADINVENVEQNRQAYRQLLFYSEGIEQYISGVILFDETVYQKDDKGVPFPELLKKKGIIPGIKVDTGVVTLQGTNGESTTQGLDNLTKRCQEYYNQGCRFAKWRCVLKIGQDEPSSLAIVENANVLARYASCCQQARIVPIVEPEILPDGDHNLERCQKVTETVLAAVYKALNDHHVYLEGTLLKPNMVTPGQSCPQKASPQEVAQATVTALQRTVPAAVPGIVFLSGGQSEEEASVNLNAINQYQGKKPWALSFSYGRALQASALRAWQGKPENIGAGQKELLQRAKANVLAHKGQYVAGSIPSLASAKSNFVAQHKY
Consider B3, for which the “% T cell responding donors to protein” value in data set [1] is 6 of 27. Moreover, the “% responding donors in BAT Assay” value in data set [2] is listed as 0 of 8.

B4: 33 (protein, listed as Dermatophagoides pteronyssinus)
chain: IEQVHIALGSNETEIIVTWTEPHKHDDKTSDAVVYYGQAKSSFDQKVKAISEYFKDDKTKYTTYRALLTGLLPGTEYHYRIQMDDLESSIFEFKTLKTGEENWLPRFAIYGDLGYVNEQSLPYLKKDVEQNLFDVIFHIGDFAYDLNDEHGKVGHHFMRSIEPVASKVAYMTCPGNHERHDNFSHYDSRFSMIGDRSQPIHSDKLNKRLNNHFHSMTIGPATIILFSTEYYYYTKYGWQQIEHQYRWLEQELKRANENRQKHPWIIVMGHRPLYCLKMGDDSCDHQTMERKEIRQGIRMHDEGERQYGLEDLFFKYGVDIQFYGHEHFYARLFPIYKYKMYNGTKSKNPYDHPGAPIHITTGSAGNKELHPEFNHLNDWVAEHFYDYGYTRLMFEDKYRIRLQQISDDQHGKVLDEIEIVKSSPQPHWMNVEHH
Turning to B4, the “% T cell responding donors to protein” value in data set [1] is recorded as 10 of 27. Besides, the “% responding donors in BAT Assay” value in data set [2] is 1 of 8*.

B5: 24 (protein, listed as Dermatophagoides pteronyssinus)
chain: DPVQQRPTLRGVTVRVGPFVKENNGKFEGFIPDLVQAISEKVGFDYTLYLSPDGRYGNVISDGNVTGMIGEVYNKKADFAAADLTMTEARENYITFTEPFMINQLAALIRREDAEGLNTLEDLAKAQETFPKRKRIVLGTLRNGATNYFLSKSDDPLAKKIYEQIKADDQSVVKSISEGVERVDKQGGYAFIMESASAEHEIANNCKLTMLLDWRNLFPRKYAFALPKDSPYLEHFNNAIKQLNSEGKIAELRRKYWANNCAENKTKDDKN
In the case of B5, the “% T cell responding donors to protein” value in data set [1] is 3 of 24.

B6: 3 (protein, listed as Dermatophagoides pteronyssinus)
chain: MAIDGKYQMESSEHFEEFVKEMGLDVDMTNVDLSKTSTMEICKDGDVYHIKSETAGIAHEIKFKVGEEFEDDMNGHKFKNVVTMECDNKMVQKKTSADGGKVVNVVREFTDAGCTVKSTYNTVTWTRVYKRM
Take B6: the “% T cell responding donors to protein” value in data set [1] was 1 of 29. Also, the “% responding donors in BAT Assay” value in data set [2] was 0 of 16.

B7: 16 (protein, listed as Dermatophagoides pteronyssinus)
chain: MSKPIFYYHPFSGPCRTVSTVAKILNVDMEMKKLDLLTKEHLNPEFLKVNPFHKVPTFVDSDGFVVDESRVIAMYLVESRKPDSFLYPKNDLKKRIQIDRWLHYDINLSTTISAPMFCVFRGHQVQDYQVEQGKETLKTLDGVMQSFEGKFLTGADQFTLADIAMYFSLNTMEVYPKYFKFDDYPNLKSWYHRVAEALKQYDTEGTIPKAIETMKQFIQQRAAEAEKH
B7: the “% T cell responding donors to protein” value in data set [1] is on record as 3 of 24.

B8: 20 (protein, listed as Dermatophagoides pteronyssinus)
chain: NWQMVWQDEFNGGHLDQNHWEFETGGGGWGNNELEFYTANRSQNVRVENGHLVIDVRVESYGGRDFTSGRIHSKQAWAYGKFEARARLPSGHHLWPAIWMFPRDSKYGPWAASGEIDIMEYRGDVHDKIEGTIHYGGQWPNNIYTGSGPHHFNVDFSKDFHNFAVEWDTKEIRWYMDGNKYFSVNIDRNMWSGKGNNPYNKNGQPFDQPFRWILNVAVGGNFFGPGPYVTPDQARHWQKHTMEIDYVRVYQWR
Regarding B8, in data set [1], the “% T cell responding donors to protein” value is 6 of 24.

B9: 18 (protein, listed as Dermatophagoides pteronyssinus)
chain: QSLFVDYNDYSCGSSQNETNELIQEFKIFKKNINGNENFKKINDFIEKARLFRDNAAKQMLEIDQQLLTLNVIQISQRIKLENNKIQCEKLTKFSELLSMQLLAYEVGMFEFAEEIDPNIDFDRKMKNFLDETSRLFNLAEFEKLEKKFRNATSIEKLKNYIDGELVALNDYINEFLKDIIMSEFTVQSRYYLNFSIEDQVQIDSTLMTFSALKILLNDLKDYLEHLDN
For B9, the “% T cell responding donors to protein” value in data set [1] is on record as 0 of 24.

B10: 38 (protein, listed as Dermatophagoides farinae)
chain: QSRDRNDKPYRIVCYWGTWAFYRPASGKFQAENVNPNLCTHIMYGFAKLQNNKIALYDPDLDDGDEDWNSGLQWGHGMIRRMVNLRTYNPHLTTMISLGGWNEGSDKYSIMVRDPASRKIFIQSVLHLLAEFDLDGLDFDWEYPAMQASGDSDRKPGRAEDKEDFVTLLRELHEAFQPHGYVLSSAVSAGKPTIDRAYNIPEVSKYLDFINLMSYDYHGGWESHTGHNAPLNSYKNANELDKEFTVTYSVEYWLNHGVDPKKLVLGIPLYGRTFTLAGSEHGIGAPTIGKGGESGTITRTIGMLGYNEICTMIKQGWQLYRDEIERIPYAVHANQWIGYDDRESVNEKLNLLMAKHLGGAMVWSIDTDDFVGNCVGVKYPLLRSISKKLNNVDGPDPDIKRYHYHTSTAKPHTDGTTSTHHDHKTTTTKHHKTTQPHHKTTQPHHTQTITTTTERPHGKFQCHQAGFFADPENPRKFHQCVDFGGHLKDYEFMCGEGTHYDEKLHICVR
As for B10, in data set [1], the “% T cell responding donors to protein” value is reported as 11 of 27. The “% responding donors in BAT Assay” value in data set [2] is reported as 0 of 8.

B11: 12 (protein, listed as Dermatophagoides pteronyssinus)
chain: MSISAHGGGLVNGIAGMENKFTVFTSGKPVSGLTVAFEGPTKPEINFNSTKDGSVDVGYIPKAGGQYKIHIKYEGKEIVGSPFKCNISGDESTHRKLTEKVKVGGPNISTGKVNQDNQLTIDCKEAGITGGISFAMEGPAKVEVSFRNNNDGTITVIYKPPTPGDYKLHLKFNDIHLPGSPYPIVVSA
Regarding B11, the “% T cell responding donors to protein” value in data set [1] is 5 of 24.
